Results as given in patent publication US20240116985A1, “STAPLED PEPTIDES AND METHODS THEREOF” (priority 2020, published 2024).
One block for each binder: values may come before it. Starred links: 1 amine or outer side, 2 acyl side, 3 side chain; linkers in the order of their positions; H or OH if unused. Positions of bridges follow the written chain, without caps; N, C: chain ends. Non-standard residues stand in square brackets, D forms with d. Primed or numbered codes have the meaning given here. No end group written: not given here. (CMe2CO2H)TriAzDap = (S)-2-amino-3-(4-(2-carboxypropan-2-yl)-1H-1,2,3-triazol-1-yl)propanoic acid, CC(C)(C(=O)[*:3])c1cn(C[C@H](N[*:1])C(=O)[*:2])nn1; PyrS2″ = (S)-3-amino-1-((pent-4-en-1-yloxy)carbonyl)pyrrolidine-3-carboxylic acid (stapling residue), C=CCCCOC(=O)N1CC[C@@](N[*:1])(C(=O)[*:2])C1; (CH2CH2CO2H)TriAzDap = (S)-2-amino-3-(4-(2-carboxyethyl)-1H-1,2,3-triazol-1-yl)propanoic acid, O=C([C@H](Cn1cc(CCC(=O)[*:3])nn1)N[*:1])[*:2]; B5(4) = 2,2-bis(4-pentenyl)glycine = 2-amino-2-(pent-4-en-1-yl)hept-6-enoic acid (stitching residue), C=CCCCC(CCCC=C)(N[*:1])C(=O)[*:2]; B5(5) = 2,2-bis(4-pentenyl)glycine, 2-amino-2-(pent-4-en-1-yl)hept-6-enoic acid (stitching residue), C=CCCCC(CCCC=C)(N[*:1])C(=O)[*:2]; PyrS2 = (S)-3-amino-1-((pent-4-en-1-yloxy)carbonyl)pyrrolidine-3-carboxylic acid, C=CCCCOC(=O)N1CC[C@@](N[*:1])(C(=O)[*:2])C1; (3C)TriAzLys = (S)-2-amino-6-(4-propyl-1H-1,2,3-triazol-1-yl)hexanoic acid, CCCc1cn(CCCC[C@H](N[*:1])C(=O)[*:2])nn1; B5(13) = 2-amino-2-(pent-4-en-1-yl)hept-6-enoic acid (two alkene chains), C=CCCCC(CCCC=C)(N[*:1])C(=O)[*:2]; 2COOHF = (S)-2-(2-amino-2-carboxyethyl)benzoic acid, O=C([C@H](Cc1ccccc1C(=O)[*:3])N[*:1])[*:2]; B5(3) = 2,2-bis(4-pentenyl)glycine (stitching residue), C=CCCCC(CCCC=C)(N[*:1])C(=O)[*:2]; Phe(2-CF3) = N[C@@H](Cc1ccccc1C(F)(F)F)C(=O)O; Phe(2-OMe) = COc1ccccc1C[C@H](N)C(=O)O; 2Nal = N[C@@H](Cc1ccc2ccccc2c1)C(=O)O; Bta = N[C@@H](Cc1csc2ccccc12)C(=O)O; αAllylPro = C=CC[C@@]1(C(=O)O)CCCN1; tBuAla = CC(C)(C)C[C@H](N)C(=O)O; 2Thi = N[C@@H](Cc1cccs1)C(=O)O; 3Thi = N[C@@H](Cc1ccsc1)C(=O)O; S8 = C=CCCCCCC[C@](C)(N)C(=O)O; Thr(ol) = C[C@@H](O)[C@H](N)CO

Tests used:
Bcat-Halo [1] = target: Bcat-Halo (UniProt P35222); assay: NanoBRET Abs IC50, HEK293 cells, B-cat-Halo / TCF4-Luc engagement
Sequence of Bcat-Halo (P35222 whole entry): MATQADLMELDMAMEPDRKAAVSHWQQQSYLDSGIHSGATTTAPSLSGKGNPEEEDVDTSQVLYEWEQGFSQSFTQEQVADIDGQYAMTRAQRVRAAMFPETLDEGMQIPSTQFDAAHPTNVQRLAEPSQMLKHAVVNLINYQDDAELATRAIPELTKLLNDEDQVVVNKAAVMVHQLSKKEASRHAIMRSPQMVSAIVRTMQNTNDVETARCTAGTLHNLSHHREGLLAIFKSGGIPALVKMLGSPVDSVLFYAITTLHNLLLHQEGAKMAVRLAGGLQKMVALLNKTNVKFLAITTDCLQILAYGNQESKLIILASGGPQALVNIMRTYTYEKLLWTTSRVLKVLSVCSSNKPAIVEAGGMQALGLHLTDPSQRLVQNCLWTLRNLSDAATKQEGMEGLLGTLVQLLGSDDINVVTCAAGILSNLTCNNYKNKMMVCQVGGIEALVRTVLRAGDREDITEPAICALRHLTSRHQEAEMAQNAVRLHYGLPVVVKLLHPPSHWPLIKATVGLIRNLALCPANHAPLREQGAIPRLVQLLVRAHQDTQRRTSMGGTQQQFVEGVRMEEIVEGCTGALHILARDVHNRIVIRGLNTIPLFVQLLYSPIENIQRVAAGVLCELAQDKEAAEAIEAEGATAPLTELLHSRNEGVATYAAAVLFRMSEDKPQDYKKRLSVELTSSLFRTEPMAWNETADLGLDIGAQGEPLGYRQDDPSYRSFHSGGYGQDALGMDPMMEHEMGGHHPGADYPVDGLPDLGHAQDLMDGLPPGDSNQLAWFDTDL

[2] = target: full-length beta-Catenin (Uniprot ID P35222) (Homo sapiens (Human)) (UniProt P35222); assay: fluorescence polarization competition against 5FAM-TCF4 10-53 on full-length beta-catenin
Target sequence in this assay (P35222 whole entry, one chain of several): as the sequence (P35222 whole entry) above

[3] = target: full-length beta-Catenin (Uniprot ID P35222) (Homo sapiens (Human)) (UniProt P35222); assay: fluorescence polarization competition; full-length beta-catenin, 5FAM-TCF4(10-53) probe
Target sequence in this assay (P35222 whole entry, one chain of several): as the sequence (P35222 whole entry) above

[4] = target: B-cat-Halo (NanoBRET construct) (UniProt P35222); assay: NanoBRET Abs IC50; Bcat-Halo/TCF4-Luc in HEK293 cells, competitor TCF4-Luc
Sequence of B-cat-Halo (NanoBRET construct) (P35222 whole entry): as above

[5] = target: full-length beta-Catenin (Uniprot ID P35222) (Homo sapiens (Human)) (UniProt P35222); assay: AlphaScreen competition vs biotin-TCF4(10-53) on full-length beta-catenin
Target sequence in this assay (P35222 whole entry, one chain of several): as the sequence (P35222 whole entry) above

[6] = target: B-cat-Halo (beta-catenin HaloTag NanoBRET construct expressed in HEK293 cells) (UniProt P35222); assay: NanoBRET in HEK293 cells, Bcat-Halo + TCF4-Luc (competitor partner TCF4)
Sequence of B-cat-Halo (beta-catenin HaloTag NanoBRET construct expressed in HEK293 cells) (P35222 whole entry): as above

[7] = target: full-length beta-Catenin (Uniprot ID P35222) (Homo sapiens (Human)) (UniProt P35222); assay: fluorescence polarization competition; peptide displaces 5FAM-TCF4(10-53) from full-length beta-catenin
Target sequence in this assay (P35222 2-781 limits assumed): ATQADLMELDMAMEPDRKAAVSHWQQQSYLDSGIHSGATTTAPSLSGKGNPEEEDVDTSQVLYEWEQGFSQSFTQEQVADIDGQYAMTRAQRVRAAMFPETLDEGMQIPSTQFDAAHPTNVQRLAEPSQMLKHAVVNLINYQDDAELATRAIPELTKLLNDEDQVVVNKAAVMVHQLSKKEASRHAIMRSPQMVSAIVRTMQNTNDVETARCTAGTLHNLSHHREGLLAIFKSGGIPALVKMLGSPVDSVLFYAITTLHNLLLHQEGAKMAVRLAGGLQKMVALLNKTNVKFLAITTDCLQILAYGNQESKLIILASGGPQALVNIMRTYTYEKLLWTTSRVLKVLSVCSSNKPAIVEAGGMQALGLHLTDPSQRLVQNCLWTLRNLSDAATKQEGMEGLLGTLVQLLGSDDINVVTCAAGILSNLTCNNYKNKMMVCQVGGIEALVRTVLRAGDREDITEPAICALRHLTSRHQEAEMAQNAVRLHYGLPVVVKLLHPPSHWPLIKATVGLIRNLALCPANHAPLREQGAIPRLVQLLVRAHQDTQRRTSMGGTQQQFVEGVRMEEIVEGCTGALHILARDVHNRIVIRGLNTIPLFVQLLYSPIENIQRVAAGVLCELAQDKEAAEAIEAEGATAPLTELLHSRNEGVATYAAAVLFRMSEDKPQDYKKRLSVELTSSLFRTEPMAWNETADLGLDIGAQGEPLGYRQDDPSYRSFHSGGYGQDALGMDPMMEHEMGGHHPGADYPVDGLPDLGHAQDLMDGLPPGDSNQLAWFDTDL

[8] = target: full-length beta-Catenin (Uniprot ID P35222) (Homo sapiens (Human)) (UniProt P35222); assay: fluorescence polarization competition: peptide titrated against 10 nM full-length beta-catenin + 10 nM 5FAM-TCF4(10-53) probe
Target sequence in this assay (P35222 2-781 limits assumed): as above

[9] = target: full-length beta-Catenin (Uniprot ID P35222) (Homo sapiens (Human)) (UniProt P35222); assay: fluorescence polarization competition; full-length beta-catenin with 5FAM-TCF4(10-53) probe as competitor
Target sequence in this assay (P35222 2-781 limits assumed): as above

Bcat-Halo [10] = target: Bcat-Halo (UniProt P35222); assay: NanoBRET Abs IC50, HEK293 cells; B-cat-Halo/TCF4-Luc engagement, competitor TCF4-Luc
[11] = target: full-length beta-Catenin (Uniprot ID P35222) (Homo sapiens (Human)) (UniProt P35222); assay: FP competition; full-length beta-catenin, competitor 5FAM-TCF4(10-53)
Target sequence in this assay (P35222 whole entry, one chain of several): as the sequence (P35222 whole entry) above

[12] = target: B-cat-Halo (beta-catenin HaloTag NanoBRET construct expressed in HEK293 cells) (UniProt P35222); assay: NanoBRET in HEK293 cells, Bcat-Halo + TCF4-Luc, peptide at 10 uM
Bcat-Halo [13] = target: Bcat-Halo (UniProt P35222); assay: NanoBRET absolute IC50, HEK293 cells, Bcat-Halo/TCF4-Luc engagement
[14] = target: full-length beta-Catenin (Uniprot ID P35222) (Homo sapiens (Human)) (UniProt P35222); assay: FP competition, full-length beta-catenin, competitor probe 5FAM-TCF4 10-53
Target sequence in this assay (P35222 2-781 limits assumed): as the sequence (P35222 2-781 limits assumed) above

[15] = target: B-cat-Halo (beta-catenin HaloTag NanoBRET construct expressed in HEK293 cells) (UniProt P35222); assay: NanoBRET Abs IC50 in HEK293 cells; Bcat-Halo, TCF4-Luc as competitor
[16] = target: full-length beta-Catenin (Uniprot ID P35222) (Homo sapiens (Human)) (UniProt P35222); assay: fluorescence polarization competition; full-length beta-catenin, 5FAM-TCF4(10-53) probe as competitor
Target sequence in this assay (P35222 2-781 limits assumed): as above

[17] = target: full-length beta-Catenin (Uniprot ID P35222) (Homo sapiens (Human)) (UniProt P35222); assay: FP competition: displacement of 5FAM-TCF4(10-53) from full-length beta-catenin
Target sequence in this assay (P35222 whole entry, one chain of several): as the sequence (P35222 whole entry) above

Binder: Ac-[αAllylPro]D[tBuAla][B5(5)]D[2COOHF]AAFF[PyrS2″][3Thi][Bta]S-NH2 (staple 1-4, 4-11) [I-1665]
IC50 [3]: 17 nM
IC50 [4]: 9700 nM

Binder: Ac-[αAllylPro]DA[B5(4)]D[2Nal]AAFV[S8]F[Bta]Q-NH2 (staple 1-4, 4-11) [I-297]
EC50 [5]: 5810 nM

Binder: Ac-[αAllylPro]D[tBuAla][B5(5)]DEAAFN[PyrS2][3Thi][Bta]-NH2 (staple 1-4, 4-11) [I-786]
IC50 [6]: 17100 nM
IC50 [7]: 8 nM
EC50 [8]: 8 nM

Binder: Ac-[αAllylPro]D[tBuAla][B5(4)]DDAAF[Phe(2-CF3)][PyrS2][3Thi][Bta]Q-NH2 (staple 1-4, 4-11) [I-1363]
IC50 [9]: 9 nM
IC50 (Bcat-Halo [10]): 5500 nM
EC50 [11]: 9 nM

Binder: Ac-[αAllylPro]D[tBuAla][B5(13)]DDAAFN[PyrS2][Phe(2-OMe)][Bta]H-NH2 (staple 1-4, 4-11) [I-781]
IC50 [6]: 11600 nM
NanoBRET % inh @ 10 uM [12]: 24%
IC50 [7]: 5 nM
EC50 [8]: 5 nM

Binder: Ac-[αAllylPro]DA[B5(4)]D[2Nal]AAFQ[S8]F[Bta]A-NH2 (staple 1-4, 4-11) [I-296]
EC50 [5]: 1910 nM

Binder: [αAllylPro]D[tBuAla][B5(4)]DDAAFF[PyrS2″][2Thi][Bta]Q-NH2 (staple 1-4, 4-11) [I-1345]
IC50 (Bcat-Halo [13]): 4700 nM
IC50 (Bcat-Halo [10]): 4700 nM
IC50 [14]: 15 nM
EC50 [11]: 15 nM

Binder: Ac-[αAllylPro]D[tBuAla][B5(5)]DDAAFT[PyrS2″][3Thi][2Nal]Q-NH2 (staple 1-4, 4-11) [I-1233]
IC50 [15]: 54500 nM
IC50 [16]: 24 nM
EC50 [17]: 24 nM

Binder: Ac-[αAllylPro]DA[B5(4)]D[2Nal]AAFS[S8]F[Bta]Q-NH2 (staple 1-4, 4-11) [I-298]
EC50 [5]: 3860 nM

Results, then the binder that gave them:

IC50 (Bcat-Halo [1]): 13500 nM
IC50 [2]: 5 nM
Binder: Ac-[αAllylPro]D[tBuAla][B5(4)]DDAAFL[PyrS2″][3Thi][Bta][(3C)TriAzLys]-NH2 (staple 1-4, 4-11) [I-2375]

IC50 [3]: 29 nM
IC50 [4]: 16400 nM
Binder: Ac-[αAllylPro]D[tBuAla][B5(5)]D[2COOHF]AAFF[PyrS2″][3Thi][Bta][Thr(ol)] (staple 1-4, 4-11; also: staple isomer, earlier-eluting HPLC peak) [I-1668]

IC50 (Bcat-Halo [1]): 6200 nM
IC50 [2]: 7 nM
Binder: Ac-[αAllylPro]D[tBuAla][B5(4)]D[(CH2CH2CO2H)TriAzDap]QAFL[PyrS2″][Phe(2-CF3)][Bta]A-NH2 (staple 1-4, 4-11) [I-2367]

IC50 (Bcat-Halo [1]): 9500 nM
IC50 [2]: 14 nM
Binder: Ac-[αAllylPro]D[tBuAla][B5(4)]D[(CMe2CO2H)TriAzDap]QAFL[PyrS2″][Phe(2-CF3)][Bta]A-NH2 (staple 1-4, 4-11) [I-2369]
